Test results published in US20130177579A1 (BIOALLIANCE C V, published 2013).
Blank lines part the entries; values can stand above or below the binder they belong to.

Assays:
[1] = molecular target: human transferrin receptor expressed by nonhematopoietic cancer cells (human) (UniProt P02786); assay: FACS, WiDr cells, 1/5X
[2] = molecular target: human transferrin receptor expressed by nonhematopoietic cancer cells (human) (UniProt P02786); assay: FACS, DLD-1 cells, 1/5X
[3] = molecular target: human transferrin receptor expressed by nonhematopoietic cancer cells (human) (UniProt P02786); assay: FACS, OMC-3 cells, 1/5X
[4] = molecular target: human transferrin receptor expressed by nonhematopoietic cancer cells (human) (UniProt P02786); assay: FACS, NCI-N87 cells, 1/5X
[5] = molecular target: human transferrin receptor expressed by nonhematopoietic cancer cells (human) (UniProt P02786); assay: FACS, SK-OV-3 cells, 1/5X
[6] = molecular target: human transferrin receptor expressed by nonhematopoietic cancer cells (human) (UniProt P02786); assay: FACS, SU.86.86 cells, 1/5X
[7] = molecular target: T1, human transferrin receptor expressed by normal human cells (RBC, PMN, lymphocytes, monocytes, platelets, … (human, UniProt P02786 1-760)); assay: FACS, PMN, donor D005, 1x
T1 construct: The assay is whole-cell FACS on normal donor cells; also called TfR on normal cells
Experimental: (§1) The hyper-immuned serum (Hyp-serum) or the corresponding cell marker antibodies for certain cell types were included as positive controls.
(§2) 1×10⁵ cells were seeded in each well of a v-bottomed 96-well plate and incubated with 50 μl of hybridoma culture supernatant at 1× and 10× dilution, or isotype control antibody mouse IgM, κ (BD™, Cat. No. 557275) at concentration of 1 μg/ml. A 300× dilution of human cell hyper-immune serum was used as binding positive control for all cell types. PE-conjugated anti-human CD41a (Southern Biotech™, Cat. No. 9391-09) was used as a positive control for staining human platelets. Anti-sialyl Lewis x antibody (Millipore™, Cat. No. MAB2096) was used as a positive control for staining human PMN. Anti-human CD31 (Hycult™, Cat. No. HM2039) was used as a positive control for staining HUVEC. After 30 minutes incubation at 4° C., cells were washed twice with 200 μl FACS buffer (1×PBS containing 1% FBS), stained with 50 μl of 1 μg/ml goat F(ab′)2-anti-mouse IgG(H+L)-PE (Southern Biotech™, Cat. No. 1032-09) or 1 μg/ml goat F(ab′)2-anti-mouse IgM(H+L)-PE (Southern Biotech™, Cat. No. 1022-09) in FACS buffer. After 30 minutes of incubation at 4° C., cells were washed twice with FACS buffer and analyzed by flow cytometry (BD LSR, BD Life Sciences).

[8] = molecular target: T1, human transferrin receptor expressed by …; assay: FACS, RBC, donor D016, 1x
Experimental: as §1, §2

[9] = molecular target: T1, human transferrin receptor expressed by …; assay: FACS, PMN, donor D016, 1/10x
Experimental: (§3) Preparation of PBMC and PMN: The whole blood was diluted with an equal volume of PBS and mixed with 1/10 volume of 15% Dextran solution. […] After centrifugation at 2200 rpm for 15 min (rotor: SORVALL, PN11788 and centrifuge: SORVALL, RT7), PBMC concentrated in the interface, were collected and washed with large volumes of FACS buffer (2% FBS in PBS) for future use. The PMN-rich pellet was collected, from which residual RBC was removed by hypotonic lysis in 0.2% NaCl.
as §2

[10] = molecular target: T1, human transferrin receptor expressed by …; assay: FACS, monocytes, donor D014, 1x
Experimental: as §1, §2

[11] = molecular target: T1, human transferrin receptor expressed by …; assay: FACS, monocytes, donor D016, 1x
Experimental: as §1, §2

[12] = molecular target: T1, human transferrin receptor expressed by …; assay: FACS, monocytes, donor D102, 1x
Experimental: as §3, §2

[13] = molecular target: T1, human transferrin receptor expressed by …; assay: FACS, monocytes, donor D014, 1/10x
Experimental: as §3, §2

[14] = molecular target: T1, human transferrin receptor expressed by …; assay: FACS, platelets, donor D005, 1/10x
Experimental: as §1, §2

[15] = molecular target: T1, human transferrin receptor expressed by …; assay: FACS, platelets, donor D014, 1/10x
Experimental: as §1, §2

[16] = molecular target: T1, human transferrin receptor expressed by …; assay: FACS, platelets, donor D016, 1/10x
Experimental: as §1, §2

[17] = molecular target: T1, human transferrin receptor expressed by …; assay: FACS, lymphocytes, donor D016, 1/10x
Experimental: as §1, §2

[18] = molecular target: human transferrin receptor expressed by nonhematopoietic cancer cells (human) (UniProt P02786); assay: FACS, KLE cells, 1X
[19] = molecular target: human transferrin receptor expressed by nonhematopoietic cancer cells (human) (UniProt P02786); assay: FACS, DLD-1 cells, 1X
[20] = molecular target: human transferrin receptor expressed by nonhematopoietic cancer cells (human) (UniProt P02786); assay: FACS, KLE cells, 1/5X
[21] = molecular target: human transferrin receptor expressed by nonhematopoietic cancer cells (human) (UniProt P02786); assay: FACS, HEC-1-A cells, 1X
[22] = molecular target: human transferrin receptor expressed by nonhematopoietic cancer cells (human) (UniProt P02786); assay: FACS, SU.86.86 cells, 1X
[23] = molecular target: human transferrin receptor expressed by nonhematopoietic cancer cells (human) (UniProt P02786); assay: FACS, MDA-MB-453 cells, 1X
[24] = molecular target: human transferrin receptor expressed by nonhematopoietic cancer cells (human) (UniProt P02786); assay: FACS, Panc02.03B cells, 1X

T1 sequence (P02786 whole entry G142S): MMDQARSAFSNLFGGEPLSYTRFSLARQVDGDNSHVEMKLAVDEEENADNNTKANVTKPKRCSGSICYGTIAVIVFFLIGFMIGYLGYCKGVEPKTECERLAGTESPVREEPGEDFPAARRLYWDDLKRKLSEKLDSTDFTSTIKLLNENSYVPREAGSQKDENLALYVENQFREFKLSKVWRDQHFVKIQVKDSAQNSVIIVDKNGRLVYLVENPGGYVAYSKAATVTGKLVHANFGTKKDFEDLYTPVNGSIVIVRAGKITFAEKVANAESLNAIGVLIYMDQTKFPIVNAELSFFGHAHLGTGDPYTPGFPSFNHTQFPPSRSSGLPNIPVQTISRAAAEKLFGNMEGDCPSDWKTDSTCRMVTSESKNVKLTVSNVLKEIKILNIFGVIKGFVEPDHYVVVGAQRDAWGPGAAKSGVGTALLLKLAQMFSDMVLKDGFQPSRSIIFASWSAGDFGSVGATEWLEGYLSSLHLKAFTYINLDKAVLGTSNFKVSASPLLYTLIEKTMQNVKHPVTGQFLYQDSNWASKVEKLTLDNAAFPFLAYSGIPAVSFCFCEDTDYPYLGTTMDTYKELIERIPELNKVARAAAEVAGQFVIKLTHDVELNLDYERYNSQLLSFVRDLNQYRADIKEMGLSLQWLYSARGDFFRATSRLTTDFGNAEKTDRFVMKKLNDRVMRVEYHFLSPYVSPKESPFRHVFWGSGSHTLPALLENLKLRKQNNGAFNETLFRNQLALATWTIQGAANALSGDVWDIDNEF
human transferrin receptor expressed by nonhematopoietic cancer cells (human), sequence (P02786 whole entry G142S): as above

MFI [1]: 2460 MFI
MFI [2]: 2690 MFI
MFI [3]: 3040 MFI
MFI [4]: 4300 MFI
MFI [5]: 381 MFI
MFI [6]: 4600 MFI
% positive cell binding [7]: < 1%
% positive cell binding [8]: 1%
% positive cell binding [9]: 1%
% positive cell binding [10]: < 1%
% positive cell binding [11]: < 1%
% positive cell binding [12]: 1%
% positive cell binding [13]: 1%
% positive cell binding [14]: < 1%
% positive cell binding [15]: < 1%
% positive cell binding [16]: < 1%
% positive cell binding [17]: 1%
B1: antibody 122-72 (antibody, V domains shown)
VH: EVQLVESGGGLVQPKGSLKLSCAASGFTFNTYAMNWVRQAPGKGLEWVARIRSKSNNYATYYADSVKDRFTISRDDSQSMLYLQMNNLKTEDTAMYYCVAYGSRNYWGQGTTLTVSS
VL: DIVMTQSPSSLTVTAGEKVTMSCKSSQSLLNSGNQKNYLTWYQQKPGQPPKLLIYWASTRESGVPDRFTGSGSGTDFTLTISSVQAEDLAVYYCQNDYSYPYTFGGGTKLEIKR
notes: Mouse IgM, kappa from a hybridoma; tested as hybridoma culture supernatant; Antibody 60-43 is said to have the same CDRs

MFI [18]: 890 MFI
MFI [19]: 3760 MFI
MFI [20]: 556 MFI
MFI [1]: 1080 MFI
MFI [2]: 3900 MFI
MFI [21]: 57 MFI
MFI [3]: 2150 MFI
MFI [22]: 3950 MFI
MFI [4]: 5100 MFI
MFI [23]: 147 MFI
MFI [24]: 5910 MFI
MFI [6]: 2940 MFI
% positive cell binding [7]: 1%
% positive cell binding [8]: 1%
% positive cell binding [9]: < 1%
% positive cell binding [10]: < 1%
% positive cell binding [11]: < 1%
% positive cell binding [12]: 2%
% positive cell binding [13]: < 1%
% positive cell binding [14]: < 1%
% positive cell binding [15]: < 1%
% positive cell binding [16]: < 1%
% positive cell binding [17]: 1%
B2: antibody 6-90 (antibody, mouse IgM, V domains shown)
VH: EVELQQFGIEMVKPGASVKISCKASGYIFTDYHMDWVRQSHGKSLEWIGDIDPKYDRVTYNQKFKGKASLTADKSSSTAYMELRSLTSEDTAVYYCAKTGAYGDYLAYWGQGTLVTVSA
VL: DLVMTQTPLSLPVSLGDQASISCRSSQSLVHSDGNTYFYWYLQKPGQSPKLLIYKVSNRFSGVPDRFSAGGSGTYFTLKISRVEAEDLGVYFCSQTTHFPPTFGGGTKLEIKR
notes: Mouse IgM, kappa from a hybridoma; tested as hybridoma culture supernatant

MFI [18]: 136 MFI
MFI [19]: 219 MFI
MFI [20]: 87 MFI
MFI [2]: 104 MFI
MFI [21]: 1490 MFI
MFI [3]: 179 MFI
MFI [22]: 154 MFI
MFI [5]: 1970 MFI
MFI [23]: 81 MFI
MFI [24]: 574 MFI
MFI [6]: 96 MFI
% positive cell binding [7]: 1%
% positive cell binding [8]: 1%
% positive cell binding [9]: < 1%
% positive cell binding [10]: < 1%
% positive cell binding [11]: 1%
% positive cell binding [12]: 3%
% positive cell binding [13]: < 1%
% positive cell binding [14]: < 1%
% positive cell binding [15]: < 1%
% positive cell binding [16]: < 1%
% positive cell binding [17]: 1%
B3: antibody 55-31 (antibody, mouse IgM, V domains shown)
VH: QVQLQQPGAELVKPGTSVKLSCKASGYNFTSYWINWVKLRPGQGLEWIGDIYPGSGSTNYNEKFKSKATLTVDTSSSTAYMQLSSLASEDSALYYCARSAYRYDWFAYWGQGTLVTVSA
VL: DIQMTQSPASLSVSVGETVTITCRASENIYSNLAWYQQKQGKSPQLLVYAATNLADGVPSRFSGSGSGTQYSLKINSLQSEDFGSYYCQHFWGTPYTFGGGTKLEIKR
notes: as for B2
